In patent US20110166062A1 (INDIANA UNIVERSITY RESEARCH AND TECHNOLOGY, published 2011):
Bridges are numbered along the chain shown (N, C = ends). Where no end group is shown, it is not given here. [ ]: non-standard residue; d: D form. Aib = CC(C)(N)C(=O)O

T1: GIP receptor (UniProt P48546 22-466)
T1 sequence (looked up): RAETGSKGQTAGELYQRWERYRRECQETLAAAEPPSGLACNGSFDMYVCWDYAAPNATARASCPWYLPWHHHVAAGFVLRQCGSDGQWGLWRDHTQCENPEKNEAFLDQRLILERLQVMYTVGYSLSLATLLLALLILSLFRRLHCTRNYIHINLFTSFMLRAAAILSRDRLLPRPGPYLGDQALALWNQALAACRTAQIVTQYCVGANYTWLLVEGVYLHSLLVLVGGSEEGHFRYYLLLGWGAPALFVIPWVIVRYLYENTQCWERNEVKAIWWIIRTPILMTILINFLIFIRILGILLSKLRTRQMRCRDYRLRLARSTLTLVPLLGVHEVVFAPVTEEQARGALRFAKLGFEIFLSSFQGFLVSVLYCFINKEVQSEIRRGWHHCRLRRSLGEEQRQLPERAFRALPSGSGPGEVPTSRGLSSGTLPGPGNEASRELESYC


Key:
Assay in all cases: cell-based or functional assay
[1] = target: glucagon receptor (UniProt P47871 26-477, limits assumed)
glucagon receptor, sequence (P47871 26-477 limits assumed): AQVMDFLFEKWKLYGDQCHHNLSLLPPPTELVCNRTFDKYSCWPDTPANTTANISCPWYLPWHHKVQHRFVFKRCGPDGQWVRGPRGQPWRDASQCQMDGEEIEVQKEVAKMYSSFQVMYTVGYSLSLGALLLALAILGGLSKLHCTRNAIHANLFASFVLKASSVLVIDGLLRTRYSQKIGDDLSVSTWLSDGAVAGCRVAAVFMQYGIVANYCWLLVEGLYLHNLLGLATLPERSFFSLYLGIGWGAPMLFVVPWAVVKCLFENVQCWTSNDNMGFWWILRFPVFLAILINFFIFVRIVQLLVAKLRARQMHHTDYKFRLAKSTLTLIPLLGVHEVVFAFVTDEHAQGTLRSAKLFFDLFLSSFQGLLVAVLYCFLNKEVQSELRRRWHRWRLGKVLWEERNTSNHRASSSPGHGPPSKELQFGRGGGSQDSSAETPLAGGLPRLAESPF

[2] = target: GLP-1 receptor (UniProt P43220 24-463, limits assumed)
[3] = target: T1, GIP receptor

| Binder | EC50 [1] [pM] | relative activity [1] [%] | EC50 [2] [pM] | relative activity [2] [%] | EC50 [3] [pM] | relative activity [3] [%] |
| --- | --- | --- | --- | --- | --- | --- |
| Y[Aib]QGTFTSDYSIYLDEQAAKEFVCWLLAGGPSSGAPPPS-NH2 (lactam 16-20; N-terminus assumed; SMILES CC[C@H](C)[C@H](NC(=O)[C@H](CO)NC(=O)[C@H](Cc1ccc(O)cc1)NC(=O)[C@H](CC(=O)O)NC(=O)[C@H](CO)NC(=O)[C@@H](NC(=O)[C@H](Cc1ccccc1)NC(=O)[C@@H](NC(=O)CNC(=O)[C@H](CCC(N)=O)NC(=O)C(C)(C)NC(=O)[C@@H](N)Cc1ccc(O)cc1)[C@@H](C)O)[C@@H](C)O)C(=O)N[C@@H](Cc1ccc(O)cc1)C(=O)N[C@@H](CC(C)C)C(=O)N[C@@H](CC(=O)O)C(=O)N[C@H]1CCC(=O)NCCCC[C@@H](C(=O)N[C@@H](CCC(=O)O)C(=O)N[C@@H](Cc2ccccc2)C(=O)N[C@H](C(=O)N[C@@H](CS)C(=O)N[C@@H](Cc2c[nH]c3ccccc23)C(=O)N[C@@H](CC(C)C)C(=O)N[C@@H](CC(C)C)C(=O)N[C@@H](C)C(=O)NCC(=O)NCC(=O)N2CCC[C@H]2C(=O)N[C@@H](CO)C(=O)N[C@@H](CO)C(=O)NCC(=O)N[C@@H](C)C(=O)N2CCC[C@H]2C(=O)N2CCC[C@H]2C(=O)N2CCC[C@H]2C(=O)N[C@@H](CO)C(N)=O)C(C)C)NC(=O)[C@H](C)NC(=O)[C@H](C)NC(=O)[C@H](CCC(N)=O)NC1=O) [mt-158] | 1050 | 14.9 | 34 | 103 | 174 | 17.8 |
| Y[Aib]QGTFTSDYSYYLDEQAVKEFVNWLIAGGPSSGAPPPS-NH2 (lactam 16-20; N-terminus assumed; SMILES CC[C@H](C)[C@H](NC(=O)[C@H](CC(C)C)NC(=O)[C@H](Cc1c[nH]c2ccccc12)NC(=O)[C@H](CC(N)=O)NC(=O)[C@@H](NC(=O)[C@H](Cc1ccccc1)NC(=O)[C@H](CCC(=O)O)NC(=O)[C@@H]1CCCCNC(=O)CC[C@H](NC(=O)[C@H](CC(=O)O)NC(=O)[C@H](CC(C)C)NC(=O)[C@H](Cc2ccc(O)cc2)NC(=O)[C@H](Cc2ccc(O)cc2)NC(=O)[C@H](CO)NC(=O)[C@H](Cc2ccc(O)cc2)NC(=O)[C@H](CC(=O)O)NC(=O)[C@H](CO)NC(=O)[C@@H](NC(=O)[C@H](Cc2ccccc2)NC(=O)[C@@H](NC(=O)CNC(=O)[C@H](CCC(N)=O)NC(=O)C(C)(C)NC(=O)[C@@H](N)Cc2ccc(O)cc2)[C@@H](C)O)[C@@H](C)O)C(=O)N[C@@H](CCC(N)=O)C(=O)N[C@@H](C)C(=O)N[C@@H](C(C)C)C(=O)N1)C(C)C)C(=O)N[C@@H](C)C(=O)NCC(=O)NCC(=O)N1CCC[C@H]1C(=O)N[C@@H](CO)C(=O)N[C@@H](CO)C(=O)NCC(=O)N[C@@H](C)C(=O)N1CCC[C@H]1C(=O)N1CCC[C@H]1C(=O)N1CCC[C@H]1C(=O)N[C@@H](CO)C(N)=O) [mt-162] | 7000 | 0.97 | 11 | 109 | 136 | 25.7 |
| Y[Aib]QGTFTSDYSIYLDEQAAKEFVNWLLAGGPSSGAPPPSC-NH2 (lactam 16-20; N-terminus assumed; SMILES CC[C@H](C)[C@H](NC(=O)[C@H](CO)NC(=O)[C@H](Cc1ccc(O)cc1)NC(=O)[C@H](CC(=O)O)NC(=O)[C@H](CO)NC(=O)[C@@H](NC(=O)[C@H](Cc1ccccc1)NC(=O)[C@@H](NC(=O)CNC(=O)[C@H](CCC(N)=O)NC(=O)C(C)(C)NC(=O)[C@@H](N)Cc1ccc(O)cc1)[C@@H](C)O)[C@@H](C)O)C(=O)N[C@@H](Cc1ccc(O)cc1)C(=O)N[C@@H](CC(C)C)C(=O)N[C@@H](CC(=O)O)C(=O)N[C@H]1CCC(=O)NCCCC[C@@H](C(=O)N[C@@H](CCC(=O)O)C(=O)N[C@@H](Cc2ccccc2)C(=O)N[C@H](C(=O)N[C@@H](CC(N)=O)C(=O)N[C@@H](Cc2c[nH]c3ccccc23)C(=O)N[C@@H](CC(C)C)C(=O)N[C@@H](CC(C)C)C(=O)N[C@@H](C)C(=O)NCC(=O)NCC(=O)N2CCC[C@H]2C(=O)N[C@@H](CO)C(=O)N[C@@H](CO)C(=O)NCC(=O)N[C@@H](C)C(=O)N2CCC[C@H]2C(=O)N2CCC[C@H]2C(=O)N2CCC[C@H]2C(=O)N[C@@H](CO)C(=O)N[C@@H](CS)C(N)=O)C(C)C)NC(=O)[C@H](C)NC(=O)[C@H](C)NC(=O)[C@H](CCC(N)=O)NC1=O) [mt-165] | 489 | 18.8 | 23 | 148 | 74 | 27 |
| YSQGTFTSDYSIYLDEQAAKEFVNWLLAG-NH2 (lactam 16-20; N-terminus assumed; SMILES CC[C@H](C)[C@H](NC(=O)[C@H](CO)NC(=O)[C@H](Cc1ccc(O)cc1)NC(=O)[C@H](CC(=O)O)NC(=O)[C@H](CO)NC(=O)[C@@H](NC(=O)[C@H](Cc1ccccc1)NC(=O)[C@@H](NC(=O)CNC(=O)[C@H](CCC(N)=O)NC(=O)[C@H](CO)NC(=O)[C@@H](N)Cc1ccc(O)cc1)[C@@H](C)O)[C@@H](C)O)C(=O)N[C@@H](Cc1ccc(O)cc1)C(=O)N[C@@H](CC(C)C)C(=O)N[C@@H](CC(=O)O)C(=O)N[C@H]1CCC(=O)NCCCC[C@@H](C(=O)N[C@@H](CCC(=O)O)C(=O)N[C@@H](Cc2ccccc2)C(=O)N[C@H](C(=O)N[C@@H](CC(N)=O)C(=O)N[C@@H](Cc2c[nH]c3ccccc23)C(=O)N[C@@H](CC(C)C)C(=O)N[C@@H](CC(C)C)C(=O)N[C@@H](C)C(=O)NCC(N)=O)C(C)C)NC(=O)[C@H](C)NC(=O)[C@H](C)NC(=O)[C@H](CCC(N)=O)NC1=O) [mt-163] | 27 | 252 | 40 | 30 | 740 | 4.73 |
| Y[Aib]QGTFTSDYSIYLDEQAAKEFVNWLLAG-NH2 (lactam 16-20; N-terminus assumed; SMILES CC[C@H](C)[C@H](NC(=O)[C@H](CO)NC(=O)[C@H](Cc1ccc(O)cc1)NC(=O)[C@H](CC(=O)O)NC(=O)[C@H](CO)NC(=O)[C@@H](NC(=O)[C@H](Cc1ccccc1)NC(=O)[C@@H](NC(=O)CNC(=O)[C@H](CCC(N)=O)NC(=O)C(C)(C)NC(=O)[C@@H](N)Cc1ccc(O)cc1)[C@@H](C)O)[C@@H](C)O)C(=O)N[C@@H](Cc1ccc(O)cc1)C(=O)N[C@@H](CC(C)C)C(=O)N[C@@H](CC(=O)O)C(=O)N[C@H]1CCC(=O)NCCCC[C@@H](C(=O)N[C@@H](CCC(=O)O)C(=O)N[C@@H](Cc2ccccc2)C(=O)N[C@H](C(=O)N[C@@H](CC(N)=O)C(=O)N[C@@H](Cc2c[nH]c3ccccc23)C(=O)N[C@@H](CC(C)C)C(=O)N[C@@H](CC(C)C)C(=O)N[C@@H](C)C(=O)NCC(N)=O)C(C)C)NC(=O)[C@H](C)NC(=O)[C@H](C)NC(=O)[C@H](CCC(N)=O)NC1=O) [mt-164] | 151 | 110 | 46 | 56.5 | 164 | 16.5 |
| YSQGTFTSDYSIYLDEQAAKEFVEWLLKGGPSSGAPPPS-NH2 (lactam 24-28; N-terminus assumed; SMILES CC[C@H](C)[C@H](NC(=O)[C@H](CO)NC(=O)[C@H](Cc1ccc(O)cc1)NC(=O)[C@H](CC(=O)O)NC(=O)[C@H](CO)NC(=O)[C@@H](NC(=O)[C@H](Cc1ccccc1)NC(=O)[C@@H](NC(=O)CNC(=O)[C@H](CCC(N)=O)NC(=O)[C@H](CO)NC(=O)[C@@H](N)Cc1ccc(O)cc1)[C@@H](C)O)[C@@H](C)O)C(=O)N[C@@H](Cc1ccc(O)cc1)C(=O)N[C@@H](CC(C)C)C(=O)N[C@@H](CC(=O)O)C(=O)N[C@@H](CCC(=O)O)C(=O)N[C@@H](CCC(N)=O)C(=O)N[C@@H](C)C(=O)N[C@@H](C)C(=O)N[C@@H](CCCCN)C(=O)N[C@@H](CCC(=O)O)C(=O)N[C@@H](Cc1ccccc1)C(=O)N[C@H](C(=O)N[C@H]1CCC(=O)NCCCC[C@@H](C(=O)NCC(=O)NCC(=O)N2CCC[C@H]2C(=O)N[C@@H](CO)C(=O)N[C@@H](CO)C(=O)NCC(=O)N[C@@H](C)C(=O)N2CCC[C@H]2C(=O)N2CCC[C@H]2C(=O)N2CCC[C@H]2C(=O)N[C@@H](CO)C(N)=O)NC(=O)[C@H](CC(C)C)NC(=O)[C@H](CC(C)C)NC(=O)[C@H](Cc2c[nH]c3ccccc23)NC1=O)C(C)C) [mt-157] | 2620 | 6.92 | 81 | 37 | 1010 | 4 |
